Measurements as given in paper PMC11635053, “Development of a homotrimeric PSMA radioligand based on the NOTI chelating platform” (EJNMMI Radiopharmacy and Chemistry, 2024).

How the values were obtained:
human serum proteins = assay: in vitro; type: in vitro ADME; conditions: male, Protein binding
Procedure: To determine the protein bound fraction of each trimeric radiotracer, 100 μL of the radiolabeling solution of the corresponding ^68Ga-labeled conjugate were added to preheated (37 °C) 1000 μL human serum (male, AB, Sigma Aldrich, USA) in triplicates. Samples were incubated for 1 h at 37 °C. After cooling to r.t., the samples were centrifuged utilizing molecular cutoff (30 kDa) centrifuge tubes at 4 G for 5 min at 4 °C. The filters were additionally rinsed with PBS buffer (2 × 100 μL). The background subtracted activity in the filters and the filtrates were determined in a Gamma counter and the percentage of protein bound fractions were calculated.

[1] = system: patient with metastatic prostate cancer; assay: Clinical PET/CT imaging; conditions: human, in vivo
Procedure: PET/CT was performed approximately 1, 2, and 3 h after intravenous injection of 107 MBq of [^68Ga]Ga-9 and 1 h after injection of 113 MBq [^68Ga]Ga-PSMA-11 in a patient with metastatic prostate cancer. Whole body imaging extending from vertex to mid-femur was performed in 3D-ToF mode on a Biograph mCT 40 scanner (Siemens Medical Solutions, Knoxville, TN, USA) with an extended field of view of 21.4 cm. PET acquisition time was 3 min bed position^−1. Low-dose CT acquisition was performed for attenuation correction and anatomical localization using an X-ray tube voltage of 120 kV and a modulation of the tube current (maximal tube current: 30 mA; CARE Dose 4D software Siemens Healthineers, Erlangen, Germany) followed by reconstruction with a soft tissue reconstruction kernel (Bf37) to a slice thickness of 5 mm (increment 2–4 mm). PET emission data were additionally corrected for decay, randoms and scatter and reconstructed applying an iterative 3D ordered subset expectation maximization algorithm (3 iterations; 21 subsets) withGaussian filtering to transaxial resolution of 5 mm at full width at half maximum. The matrix size was 200 × 200 mm and the reconstructed pixel size was 5.0 mm.

PSMA = target: T1, PSMA (Homo sapiens, UniProt Q04609); assay: Competitive binding assay in LNCaP cells with [177Lu]Lu-PSMA-617 as radioligand; conditions: LNCaP cells, radioligand [177Lu]Lu-PSMA-617, 2 h at r.t.; read-out: IC50 (half maximum competitive inhibitory concentration)
T1 construct: host or cells: LNCaP
Procedure: In order to establish a structure–activity relationship, the binding affinity of the metal-free and ^natGa-complexes of the conjugates 7, 8, and 9 were determined in the PSMA-positive human prostate cancer cell line LNCaP by a competitive binding assay as previously reported using [^177Lu]Lu-PSMA-617 as the radioligand (Stemler et al. [2021]). The conjugate Glu-CO-Lys-Ahx-HBED-CC (PSMA-11) was included as the control.
The competitive binding assay was carried out using a MultiScreen®HTS Vacuum Manifold system (Merck, Germany) with 96-well filter plates. Serial dilutions of the metal-free conjugates and corresponding ^natGa complexes were prepared to obtain 7 final concentrations ranging from 0 to 1000 nM for each compound. PSMA-11 was also tested as control. Experiments were performed twice in triplicate for each compound. Freshly prepared ^177Lu-labeled PSMA-617 was used as the radioligand. A volume of 1 μL of [^177Lu]Lu-PSMA-617 stock solution (2.83 μM) was added into each tube of the dilution series (radioligand concentration 3.14 nM). For the experiment, 10^5 LNCaP cells were seeded into each well. The final volume of each well was 150 μL (100 μL cells in medium + 50 μL inhibitor in PBS). The experiment was incubated for 2 h at r.t. in a plate shaker. Then, the supernatants were removed by vacuum. Wells were furthermore washed out with ice-cold PBS (3 × 200 μL, pH 7.4). The filters were punched into tubes for the subsequent quantification of the activity in a Gamma-counter. A nonlinear regression algorithm was applied by the software GraphPad Prism to determine the specific inhibitory concentrations of 50% for the tested radiotracers.

[2] = system: PSMA-positive LNCaP cells; assay: Cell uptake / internalization of 68Ga-labeled conjugates in LNCaP cells; type: cell-based, human; conditions: 1 h incubation, 2.5 pmol per 10^6 cells, 68Ga-labeled
Procedure: Next, the cellular uptake of the ^68Ga-labeled conjugates 7, 8, and 9 as well as [^68Ga]Ga-PSMA-11 was determined in PSMA-positive LNCaP cells.
LNCaP cells were seeded (10^6 cells well^−1) in poly-L-lysine coated 6-well plates 24 h before the experiment. Experiments were performed twice in triplicate for each compound. The radiolabeling solutions of [^68Ga]Ga-7, [^68Ga]Ga-8, [^68Ga]Ga-9, and [^68Ga]Ga-PSMA-11 were first diluted with PBS (pH 7.4) to a concentration of […]. 100 µL of this dilution were added to 3900 µL PBS (pH 7.4) to obtain final stock solutions of each radiolabeled compound (0.025 nmol mL^−1).
On the day of the experiment, the medium was replaced by fresh preheated medium (1.4 mL w/o blocking, 1.3 mL with blocking) and the cells incubated for 1 h at 37 °C. Next, the blocking solution was added (100 μL, 2500 pmol) to the corresponding wells. Finally, the corresponding radiolabeled conjugate (100 μL, 2.5 pmol) was added to a final assay volume of 1.5 mL well^−1. After 1 h incubation time, the supernatants were removed and the cells were washed carefully with ice-cold PBS buffer (2 × 1 mL, pH 7.4) followed by a subsequent glycine–HCl washing step (50 mM, pH 2.8, 2 × 1 mL well^−1). Cells were incubated with the glycine–HCl solution for 4 min at r.t. Next, corresponding fractions were transferred into counting tubes. Subsequently, the cells were lysed by adding NaOH (2 × 1 mL well^−1, 0.1 M) and the lysed fractions were also transferred into counting tubes. As standards, 100 µL of each radiolabeled conjugate stock solution (0.025 nmol mL^−1, 2.5 pmol) were pipetted into counting tubes containing 2 mL PBS buffer. The activity of the standards, the surface bound fractions and the internalized fractions were measured in a Gamma counter. Means were calculated and subtracted by the background. The percentages of unspecific and specific cell-surface bound and internalized activity were calculated from the standards.

[3] = type: in vitro ADME; conditions: 2 h
Procedure: 100 μL of the radiolabeling solution of each ^68Ga-labeled tracer were added to preheated (37 °C) 1000 μL human serum (male, AB, Sigma Aldrich, USA) in triplicates and incubated at 37 °C. At 1 and 2 h, 100 µL aliquots were taken, mixed with 100 µL ice-cold acetonitrile, and centrifuged at 4 G for 5 min at 4 °C. The corresponding filtrates were kept on ice until HPLC analysis. The supernatants were then analyzed by radio-RP-HPLC and fractions of intact compounds were calculated from the HPLC chromatograms. (gradient 4,Gamma-ray detector: 100–900 keV, injection volume: 20 μl). tR ([^68Ga]Ga-7) = 12.1 min, tR ([^68Ga]Ga-8) = 14.4 min, tR ([^68Ga]Ga-9) = 25.2 min.

T1 sequence (Q04609 whole entry): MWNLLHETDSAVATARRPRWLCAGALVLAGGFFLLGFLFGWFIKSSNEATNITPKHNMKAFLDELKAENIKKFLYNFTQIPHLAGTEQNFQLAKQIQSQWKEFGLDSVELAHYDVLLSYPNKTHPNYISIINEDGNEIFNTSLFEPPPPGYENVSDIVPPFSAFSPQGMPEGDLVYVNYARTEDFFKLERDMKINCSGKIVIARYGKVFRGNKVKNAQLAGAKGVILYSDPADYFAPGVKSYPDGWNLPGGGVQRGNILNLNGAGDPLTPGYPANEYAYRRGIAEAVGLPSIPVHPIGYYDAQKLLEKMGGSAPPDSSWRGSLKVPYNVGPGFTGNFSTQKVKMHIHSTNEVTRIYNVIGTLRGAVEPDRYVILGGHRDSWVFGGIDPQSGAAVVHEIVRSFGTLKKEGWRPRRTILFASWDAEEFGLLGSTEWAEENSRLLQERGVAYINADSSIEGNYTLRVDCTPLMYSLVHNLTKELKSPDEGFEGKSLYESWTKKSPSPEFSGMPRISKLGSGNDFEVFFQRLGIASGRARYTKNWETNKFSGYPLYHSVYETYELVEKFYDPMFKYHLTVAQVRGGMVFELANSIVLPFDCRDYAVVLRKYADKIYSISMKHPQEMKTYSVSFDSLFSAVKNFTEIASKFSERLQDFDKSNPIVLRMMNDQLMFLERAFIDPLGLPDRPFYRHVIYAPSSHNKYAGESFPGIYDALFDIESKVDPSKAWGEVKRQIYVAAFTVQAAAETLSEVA

IC50 (PSMA): 4.8 nM
Compound: O=C(O)CC[C@H](NC(=O)N[C@@H](CCCCNC(=O)[C@H](Cc1ccc2ccccc2c1)NC(=O)[C@H]1CC[C@H](CNC(=O)CCCCn2ccnc2CN2CCN(Cc3nccn3CCCCC(=O)NC[C@H]3CC[C@H](C(=O)N[C@@H](Cc4ccc5ccccc5c4)C(=O)NCCCC[C@H](NC(=O)N[C@@H](CCC(=O)O)C(=O)O)C(=O)O)CC3)CCN(Cc3nccn3CCCCC(=O)NC[C@H]3CC[C@H](C(=O)N[C@@H](Cc4ccc5ccccc5c4)C(=O)NCCCC[C@H](NC(=O)N[C@@H](CCC(=O)O)C(=O)O)C(=O)O)CC3)CC2)CC1)C(=O)O)C(=O)O [^nat/68Ga-9, metal not drawn]
fraction unbound at 1 h (human serum proteins): < 0.05
SUVpeak in the parotid gland [1]: 26.7
SUVpeak in the submandibular gland [1]: 23.5
SUVpeak kidneys [1]: 33.1
SUVpeak, first target lesion [1]: 23.7
SUVpeak, second target lesion [1]: 12.8
SUVpeak, third target lesion [1]: 10.3
Cell-surface bound fraction [2]: 1.5 ± 0.5%
Metabolic stability in human serum [3]: no significant degradation
